Reference: the supplement of paper PMC6379048

What was measured:
Assay in all cases: Kd (EC50 corrected by depletion factor)
MRPS2 = MRPS2 (UniProt Q9Y399)
Outline: (§1)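 Free RNA oligos (0 nM to 30 μM) were pre-incubated with HEK293-FT lysate (2.5 mg protein/well) for 1 h at 4°C, followed by 30 min at 4°C with the same 5′-amino-C6 oligos coupled to NHS-Sepharose beads. Bound proteins were quantified by label-free LC-MS/MS and normalised to the control. EC50 was derived from a four-parameter log-logistic fit, and Kd was obtained by multiplying EC50 by a protein-dependent depletion factor.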

TARDBP = TARDBP (UniProt Q13148)
Outline: as §1

DHX37 = molecular target: T1, DHX37 (UniProt Q8IY37)
T1 sequence: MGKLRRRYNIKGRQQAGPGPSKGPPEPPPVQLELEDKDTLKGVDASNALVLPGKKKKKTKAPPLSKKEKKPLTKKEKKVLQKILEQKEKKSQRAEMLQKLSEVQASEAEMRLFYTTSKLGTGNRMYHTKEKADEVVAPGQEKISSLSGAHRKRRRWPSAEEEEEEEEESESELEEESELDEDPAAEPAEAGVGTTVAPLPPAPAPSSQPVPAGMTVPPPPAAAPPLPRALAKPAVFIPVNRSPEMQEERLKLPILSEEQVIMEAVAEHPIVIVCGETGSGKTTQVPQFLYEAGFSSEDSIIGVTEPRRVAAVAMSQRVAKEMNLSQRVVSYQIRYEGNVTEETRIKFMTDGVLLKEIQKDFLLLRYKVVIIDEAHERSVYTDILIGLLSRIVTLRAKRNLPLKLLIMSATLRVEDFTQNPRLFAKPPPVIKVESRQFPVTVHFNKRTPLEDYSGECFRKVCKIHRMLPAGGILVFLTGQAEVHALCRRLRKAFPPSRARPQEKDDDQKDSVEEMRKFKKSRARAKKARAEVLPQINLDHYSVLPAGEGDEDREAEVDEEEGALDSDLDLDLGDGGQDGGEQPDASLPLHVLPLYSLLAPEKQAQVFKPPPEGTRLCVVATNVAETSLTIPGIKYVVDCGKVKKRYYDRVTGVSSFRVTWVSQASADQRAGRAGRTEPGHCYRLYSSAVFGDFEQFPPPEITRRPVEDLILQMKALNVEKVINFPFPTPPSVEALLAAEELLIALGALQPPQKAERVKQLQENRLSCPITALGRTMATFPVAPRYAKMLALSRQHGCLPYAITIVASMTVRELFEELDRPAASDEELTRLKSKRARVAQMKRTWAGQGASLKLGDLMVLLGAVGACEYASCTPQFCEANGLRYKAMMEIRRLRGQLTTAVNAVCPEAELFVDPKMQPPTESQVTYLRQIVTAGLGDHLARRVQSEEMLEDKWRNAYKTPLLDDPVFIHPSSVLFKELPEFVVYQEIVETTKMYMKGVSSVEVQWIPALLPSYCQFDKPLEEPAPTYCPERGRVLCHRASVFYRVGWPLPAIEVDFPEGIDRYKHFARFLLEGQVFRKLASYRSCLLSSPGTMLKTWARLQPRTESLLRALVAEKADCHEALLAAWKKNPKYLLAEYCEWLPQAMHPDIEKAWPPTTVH
Outline: as §1

ZCCHC11 = ZCCHC11 (UniProt Q5TAX3)
Outline: as §1

TUBB4B = TUBB4B (UniProt P68371)
Outline: as §1

TIAL1 = molecular target: T2, TIAL1 (UniProt Q01085)
T2 sequence: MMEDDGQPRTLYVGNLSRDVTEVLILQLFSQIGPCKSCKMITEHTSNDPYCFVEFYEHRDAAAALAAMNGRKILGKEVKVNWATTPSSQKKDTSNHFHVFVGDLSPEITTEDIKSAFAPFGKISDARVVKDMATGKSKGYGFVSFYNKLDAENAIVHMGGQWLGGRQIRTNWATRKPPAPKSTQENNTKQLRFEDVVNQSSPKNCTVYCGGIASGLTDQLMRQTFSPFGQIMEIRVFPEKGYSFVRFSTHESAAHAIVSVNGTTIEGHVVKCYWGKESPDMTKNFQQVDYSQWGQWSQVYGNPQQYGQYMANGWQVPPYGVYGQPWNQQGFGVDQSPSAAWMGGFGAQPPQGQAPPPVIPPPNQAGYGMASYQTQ
Outline: as §1

RPS19 = RPS19 (UniProt P39019)
Outline: as §1

MRPL53 = MRPL53 (UniProt Q96EL3)
Outline: as §1

ANGEL2 = molecular target: T3, ANGEL2 (UniProt Q5VTE6)
T3 sequence: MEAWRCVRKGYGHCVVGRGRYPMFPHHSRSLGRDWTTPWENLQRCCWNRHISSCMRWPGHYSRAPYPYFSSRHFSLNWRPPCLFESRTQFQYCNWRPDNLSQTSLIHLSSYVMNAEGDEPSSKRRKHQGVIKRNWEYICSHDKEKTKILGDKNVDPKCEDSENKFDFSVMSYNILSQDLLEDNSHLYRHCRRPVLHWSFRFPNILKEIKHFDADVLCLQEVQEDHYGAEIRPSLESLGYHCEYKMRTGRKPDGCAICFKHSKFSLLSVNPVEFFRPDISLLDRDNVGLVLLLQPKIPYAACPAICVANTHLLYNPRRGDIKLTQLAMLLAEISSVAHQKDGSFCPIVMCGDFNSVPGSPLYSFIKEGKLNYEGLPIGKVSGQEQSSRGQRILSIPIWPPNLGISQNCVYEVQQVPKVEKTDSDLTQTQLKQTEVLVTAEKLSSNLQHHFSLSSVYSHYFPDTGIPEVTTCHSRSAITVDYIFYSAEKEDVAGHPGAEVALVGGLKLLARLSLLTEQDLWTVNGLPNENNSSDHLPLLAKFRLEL
Outline: as §1

MRPL38 = MRPL38 (UniProt Q96DV4)
Outline: as §1

MRPL19 = MRPL19 (UniProt P49406)
Outline: as §1

RPS10 = RPS10 (UniProt P46783)
Outline: as §1

TUBB4B, sequence (P68371 whole entry): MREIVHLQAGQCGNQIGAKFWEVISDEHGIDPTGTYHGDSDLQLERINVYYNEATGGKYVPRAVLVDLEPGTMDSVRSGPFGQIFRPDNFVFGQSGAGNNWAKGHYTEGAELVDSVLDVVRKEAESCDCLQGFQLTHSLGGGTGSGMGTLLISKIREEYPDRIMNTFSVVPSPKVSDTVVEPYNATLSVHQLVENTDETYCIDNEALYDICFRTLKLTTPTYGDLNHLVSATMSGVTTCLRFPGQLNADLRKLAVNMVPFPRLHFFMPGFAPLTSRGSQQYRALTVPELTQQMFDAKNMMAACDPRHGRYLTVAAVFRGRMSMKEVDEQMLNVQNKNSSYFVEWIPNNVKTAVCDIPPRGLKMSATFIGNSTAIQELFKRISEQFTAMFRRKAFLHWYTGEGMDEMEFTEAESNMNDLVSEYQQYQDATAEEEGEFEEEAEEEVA
ZCCHC11, sequence (Q5TAX3 whole entry): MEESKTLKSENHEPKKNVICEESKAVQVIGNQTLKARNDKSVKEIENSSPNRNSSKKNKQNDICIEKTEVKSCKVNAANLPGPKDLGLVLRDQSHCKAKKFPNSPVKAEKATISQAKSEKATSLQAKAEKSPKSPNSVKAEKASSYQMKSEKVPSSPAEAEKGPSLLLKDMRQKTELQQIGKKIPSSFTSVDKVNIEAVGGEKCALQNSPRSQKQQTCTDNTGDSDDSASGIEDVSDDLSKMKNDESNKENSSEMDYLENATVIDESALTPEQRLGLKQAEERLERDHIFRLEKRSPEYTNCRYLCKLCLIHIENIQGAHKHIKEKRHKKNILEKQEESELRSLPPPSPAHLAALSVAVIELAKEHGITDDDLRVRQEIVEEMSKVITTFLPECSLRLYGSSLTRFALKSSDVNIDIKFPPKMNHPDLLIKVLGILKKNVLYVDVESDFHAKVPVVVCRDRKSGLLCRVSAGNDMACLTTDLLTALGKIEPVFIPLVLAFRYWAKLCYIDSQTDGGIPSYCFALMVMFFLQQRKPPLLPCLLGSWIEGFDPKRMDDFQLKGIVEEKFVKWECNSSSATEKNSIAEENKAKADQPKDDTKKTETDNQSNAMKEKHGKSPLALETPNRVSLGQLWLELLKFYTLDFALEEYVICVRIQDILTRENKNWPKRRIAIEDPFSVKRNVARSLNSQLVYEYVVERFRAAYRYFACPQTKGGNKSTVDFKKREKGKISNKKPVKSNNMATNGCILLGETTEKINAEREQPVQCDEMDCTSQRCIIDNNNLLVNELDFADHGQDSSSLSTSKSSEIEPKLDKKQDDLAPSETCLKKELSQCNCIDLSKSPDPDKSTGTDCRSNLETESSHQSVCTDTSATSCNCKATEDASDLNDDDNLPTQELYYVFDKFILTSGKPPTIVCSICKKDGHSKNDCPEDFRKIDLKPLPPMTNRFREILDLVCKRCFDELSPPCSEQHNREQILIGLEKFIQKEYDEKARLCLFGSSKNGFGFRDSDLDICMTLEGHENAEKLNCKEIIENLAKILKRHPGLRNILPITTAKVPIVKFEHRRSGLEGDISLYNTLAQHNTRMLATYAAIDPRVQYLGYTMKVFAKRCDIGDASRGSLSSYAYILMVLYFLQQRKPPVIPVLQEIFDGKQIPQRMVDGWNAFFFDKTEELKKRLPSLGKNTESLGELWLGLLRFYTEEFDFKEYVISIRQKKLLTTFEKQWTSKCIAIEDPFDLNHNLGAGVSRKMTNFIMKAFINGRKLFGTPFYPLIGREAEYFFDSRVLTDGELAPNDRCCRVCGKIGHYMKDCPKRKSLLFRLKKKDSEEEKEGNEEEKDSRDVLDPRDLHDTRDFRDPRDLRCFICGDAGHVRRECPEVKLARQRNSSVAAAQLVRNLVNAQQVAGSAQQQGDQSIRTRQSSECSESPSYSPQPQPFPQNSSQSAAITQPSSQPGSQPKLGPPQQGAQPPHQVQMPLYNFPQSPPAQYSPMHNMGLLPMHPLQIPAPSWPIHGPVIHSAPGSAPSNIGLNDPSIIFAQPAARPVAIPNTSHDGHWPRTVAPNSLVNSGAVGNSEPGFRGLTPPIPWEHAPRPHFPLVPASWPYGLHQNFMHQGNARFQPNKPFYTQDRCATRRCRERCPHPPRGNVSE
TARDBP, sequence (Q13148 whole entry): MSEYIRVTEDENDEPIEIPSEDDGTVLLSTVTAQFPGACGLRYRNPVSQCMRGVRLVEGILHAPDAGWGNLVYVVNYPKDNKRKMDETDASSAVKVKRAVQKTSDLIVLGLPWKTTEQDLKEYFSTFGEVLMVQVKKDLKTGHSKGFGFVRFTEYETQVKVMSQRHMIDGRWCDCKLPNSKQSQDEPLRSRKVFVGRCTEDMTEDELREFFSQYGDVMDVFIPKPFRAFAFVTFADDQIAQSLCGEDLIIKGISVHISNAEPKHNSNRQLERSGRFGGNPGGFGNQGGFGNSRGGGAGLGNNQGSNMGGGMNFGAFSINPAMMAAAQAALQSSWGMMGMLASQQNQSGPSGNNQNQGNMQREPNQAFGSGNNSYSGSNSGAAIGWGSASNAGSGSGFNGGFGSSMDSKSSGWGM

UAUUUAU
Kd (MRPS2): 27.7 nM | Kd (TARDBP): 1320 nM | Kd (DHX37): 3370 nM | Kd (ZCCHC11): 91.8 nM

AAUAAA
Kd (TUBB4B): 2430 nM | Kd (TIAL1): 11.2 nM

CUGUCCU
Kd (RPS19): 69.9 nM | Kd (MRPL53): 100 nM | Kd (ANGEL2): 144 nM | Kd (MRPL38): 40.7 nM | Kd (MRPL19): 54.1 nM | Kd (RPS10): 116 nM
